According to patent US20230250154A1 (CYTONICS, published 2023):
Substitutions are numbered along the chain they refer to. In names and notes the source's numbering stands. One block for each binder: values may come before it.

Legend:
Test in all cases: cell-based or functional assay
ADAMTS4 = target: T1, ADAMTS4 (human, UniProt O75173 213-685, limits assumed)
T1 sequence (looked up): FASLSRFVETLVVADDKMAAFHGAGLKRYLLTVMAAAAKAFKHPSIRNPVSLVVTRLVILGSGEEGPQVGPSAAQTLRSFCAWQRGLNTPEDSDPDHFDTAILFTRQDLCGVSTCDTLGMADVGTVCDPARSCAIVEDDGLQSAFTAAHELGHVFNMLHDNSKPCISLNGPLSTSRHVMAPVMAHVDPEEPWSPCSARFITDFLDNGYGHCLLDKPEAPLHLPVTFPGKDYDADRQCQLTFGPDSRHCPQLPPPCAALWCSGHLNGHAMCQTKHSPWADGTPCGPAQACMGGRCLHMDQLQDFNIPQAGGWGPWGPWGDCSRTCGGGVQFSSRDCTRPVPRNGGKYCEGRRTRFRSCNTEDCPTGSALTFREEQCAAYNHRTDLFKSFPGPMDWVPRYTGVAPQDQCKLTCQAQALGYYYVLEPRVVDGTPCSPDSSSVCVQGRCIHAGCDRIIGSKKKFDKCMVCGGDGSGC

ADAMTS5 = target: T2, ADAMTS5 (human, UniProt Q9UNA0 262-622, limits assumed)
T2 sequence (looked up): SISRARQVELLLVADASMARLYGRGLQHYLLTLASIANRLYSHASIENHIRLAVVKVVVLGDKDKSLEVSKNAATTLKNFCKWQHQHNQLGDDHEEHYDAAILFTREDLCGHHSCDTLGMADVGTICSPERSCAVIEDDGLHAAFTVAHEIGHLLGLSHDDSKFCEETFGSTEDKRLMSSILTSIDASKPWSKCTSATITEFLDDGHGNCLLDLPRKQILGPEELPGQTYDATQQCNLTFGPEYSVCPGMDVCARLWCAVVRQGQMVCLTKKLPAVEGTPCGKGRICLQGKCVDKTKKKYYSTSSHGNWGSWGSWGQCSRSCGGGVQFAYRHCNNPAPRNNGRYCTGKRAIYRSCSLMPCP

MMP13 = MMP13 (human, UniProt P45452 104-471, limits assumed)

B1: Variant A2M, bait region SEQ ID NO 95 (other)
chain: SVSGKPQYMVLVPSLLHTETTEKGCVLLSYLNETVTVSASLESVRGNRSLFTDLEAENDVLHCVAFAVPKSSSNEEVMFLTVQVKGPTQEFKKRTTVMVKNEDSLVFVQTDKSIYKPGQTVKFRVVSMDENFHPLNELIPLVYIQDPKGNRIAQWQSFQLEGGLKQFSFPLSSEPFQGSYKVVVQKKSGGRTEHPFTVEEFVLPKFEVQVTVPKIITILEEEMNVSVCGLYTYGKPVPGHVTVSICRKYSDASDCHGEDSQAFCEKFSGQLNSHGCFYQQVKTKVFQLKRKEYEMKLHTEAQIQEEGTVVELTGRQSSEITRTITKLSFVKVDSHFRQGIPFFGQVRLVDGKGVPIPNKVIFIRGNEANYYSNATTDEHGLVQFSINTTNVMGTSLTVRVNYKDRSPCYGYQWVSEEHEEAHHTAYLVFSPSKSFVHLEPMSHELPCGHTQTVQAHYILNGGTLLGLKKLSFYYLIMAKGGIVRTGTHGLLVKQEDMKGHFSISIPVKSDIAPVARLLIYAVLPTGDVIGDSAKYDVENCLANKVDLSFSPSQSLPASHAHLRVTAAPQSVCALRAVDQSVLLMKPDAELSASSVYNLLPEKDLTGFPGPLNDQDDEDCINRHNVYINGITYTPVSSTNEKDMYSFLEDMGLKAFTNSKIRKPKMCPQLEQYEMHGPEGLRVGTSEDLVVQFYESDVMGRGHARLVHVEEPHTKLLRKYFPETWIWDLVVVNSAGVAEVGVTVPDTITEWKAGAFCLSEDAGLGISSTASLRAFQPFFVELTMPYSVIRGEAFTLKATVLNYLPKCIRVSVQLEASPAFLAVPVEKEQAPHCICANGRQTVSWAVTPKSLGNVNFTVSAEALESQELCGTEVPSVPEHGRKDTVIKPLLVEPEGLEKETTFNSLLCPSGGEVSEELSLKLPPNVVEESARASVSVLGDILGSAMQNTQNLLQMPYGCGEQNMVLFAPNIYVLDYLNETQQLTPEIKSKAIGYLNTGYQRQLNYKHYDGSYSTFGERYGRNQGNTWLTAFVLKTFAQARAYIFIDEAHITQALIWLSQRQKDNGCFRSSGSLLNNAIKGGVEDEVTLSAYITIALLEIPLTVTHPVVRNALFCLESAWKTAQEGDHGSHVYTKALLAYAFALAGNQDKRKEVLKSLNEEAVKKDNSVHWERPQKPKAPVGHFYEPQAPSAEVEMTSYVLLAYLTAQPAPTSEDLTSATNIVKWITKQQNAQGGFSSTQDTVVALHALSKYGAATFTRTGKAAQVTIQSSGTFSSKFQVDNNNRLLLQQVSLPELPGEYSMKVTGEGCVYLQTSLKYNILPEKEEFPFALGVQTLPQTCDEPKAHTSFQISLSVSYTGSRSASNMAIVDVKMVSGFIPLKPTVKMLERSNHVSRTEVSSNHVLIYLDKVSNQTLSLFFTVLQDVPVRDLKPAIVKVYDYYETDEFAIAEYNAPCSKDLGNADYKDDDDKGASHHHHHH
Protease Inhibition (% of WT) (ADAMTS4): 153 % of WT
Protease Inhibition (% of WT) (ADAMTS5): 272 % of WT
Protease Inhibition (% of WT) (MMP13): 79 % of WT

B3: Variant A2M, bait region SEQ ID NO 97 (other)
chain: B1 chain with T684G, S685E, D687G, L688V, V689E, V690E, Q691G
Protease Inhibition (% of WT) (ADAMTS4): 131 % of WT
Protease Inhibition (% of WT) (ADAMTS5): 128 % of WT
Protease Inhibition (% of WT) (MMP13): 116 % of WT

Now from value to binder:

Protease Inhibition (% of WT) (ADAMTS4): 63 % of WT
Protease Inhibition (% of WT) (ADAMTS5): 87 % of WT
Protease Inhibition (% of WT) (MMP13): 64 % of WT
B2: Variant A2M, bait region SEQ ID NO 99 (other)
chain: B1 chain with T684G, S685P, E686P, D687G, V689A, V690P, Q691G

Protease Inhibition (% of WT) (ADAMTS4): 124 % of WT
Protease Inhibition (% of WT) (ADAMTS5): 82 % of WT
Protease Inhibition (% of WT) (MMP13): 148 % of WT
B4: Variant A2M, bait region SEQ ID NO 98 (other)
chain: SVSGKPQYMVLVPSLLHTETTEKGCVLLSYLNETVTVSASLESVRGNRSLFTDLEAENDVLHCVAFAVPKSSSNEEVMFLTVQVKGPTQEFKKRTTVMVKNEDSLVFVQTDKSIYKPGQTVKFRVVSMDENFHPLNELIPLVYIQDPKGNRIAQWQSFQLEGGLKQFSFPLSSEPFQGSYKVVVQKKSGGRTEHPFTVEEFVLPKFEVQVTVPKIITILEEEMNVSVCGLYTYGKPVPGHVTVSICRKYSDASDCHGEDSQAFCEKFSGQLNSHGCFYQQVKTKVFQLKRKEYEMKLHTEAQIQEEGTVVELTGRQSSEITRTITKLSFVKVDSHFRQGIPFFGQVRLVDGKGVPIPNKVIFIRGNEANYYSNATTDEHGLVQFSINTTNVMGTSLTVRVNYKDRSPCYGYQWVSEEHEEAHHTAYLVFSPSKSFVHLEPMSHELPCGHTQTVQAHYILNGGTLLGLKKLSFYYLIMAKGGIVRTGTHGLLVKQEDMKGHFSISIPVKSDIAPVARLLIYAVLPTGDVIGDSAKYDVENCLANKVDLSFSPSQSLPASHAHLRVTAAPQSVCALRAVDQSVLLMKPDAELSASSVYNLLPEKDLTGFPGPLNDQDDEDCINRHNVYINGITYTPVSSTNEKDMYSFLEDMGLKAFTNSKIRKPKMCPQLEQYEMHGPEGLRVGGARGLEGFYESDVMGRGHARLVHVEEPHTKLRKYFPETWIWDLVVVNSAGVAEVGVTVPDTITEWKAGAFCLSEDAGLGISSTASLRAFQPFFVELTMPYSVIRGEAFTLKATVLNYLPKCIRVSVQLEASPAFLAVPVEKEQAPHCICANGRQTVSWAVTPKSLGNVNFTVSAEALESQELCGTEVPSVPEHGRKDTVIKPLLVEPEGLEKETTFNSLLCPSGGEVSEELSLKLPPNVVEESARASVSVLGDILGSAMQNTQNLLQMPYGCGEQNMVLFAPNIYVLDYLNETQQLTPEIKSKAIGYLNTGYQRQLNYKHYDGSYSTFGERYGRNQGNTWLTAFVLKTFAQARAYIFIDEAHITQALIWLSQRQKDNGCFRSSGSLLNNAIKGGVEDEVTLSAYITIALLEIPLTVTHPVVRNALFCLESAWKTAQEGDHGSHVYTKALLAYAFALAGNQDKRKEVLKSLNEEAVKKDNSVHWERPQKPKAPVGHFYEPQAPSAEVEMTSYVLLAYLTAQPAPTSEDLTSATNIVKWITKQQNAQGGFSSTQDTVVALHALSKYGAATFTRTGKAAQVTIQSSGTFSSKFQVDNNNRLLLQQVSLPELPGEYSMKVTGEGCVYLQTSLKYNILPEKEEFPFALGVQTLPQTCDEPKAHTSFQISLSVSYTGSRSASNMAIVDVKMVSGFIPLKPTVKMLERSNHVSRTEVSSNHVLIYLDKVSNQTLSLFFTVLQDVPVRDLKPAIVKVYDYYETDEFAIAEYNAPCSKDLGNADYKDDDDKGASHHHHHH
